Consider three molecules from paper PMC6101539 (Nucleic Acids Research, 2018).

Experiment in all cases: EMSA
One data set addresses T1, SsbB (Bacillus subtilis, UniProt C0SPB6 1-113).
T1 sequence: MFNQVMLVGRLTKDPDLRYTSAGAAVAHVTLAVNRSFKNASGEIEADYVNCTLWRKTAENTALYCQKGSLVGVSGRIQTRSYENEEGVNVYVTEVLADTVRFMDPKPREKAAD

Data set [1] has as its target T2, RarA;SsbBA chimera (SsbB*) (Bacillus subtilis;Bacillus subtilis, UniProt O34528;C0SPB6 1-421;1-113+P37455:164-172, |internal_change).
T2 sequence 1: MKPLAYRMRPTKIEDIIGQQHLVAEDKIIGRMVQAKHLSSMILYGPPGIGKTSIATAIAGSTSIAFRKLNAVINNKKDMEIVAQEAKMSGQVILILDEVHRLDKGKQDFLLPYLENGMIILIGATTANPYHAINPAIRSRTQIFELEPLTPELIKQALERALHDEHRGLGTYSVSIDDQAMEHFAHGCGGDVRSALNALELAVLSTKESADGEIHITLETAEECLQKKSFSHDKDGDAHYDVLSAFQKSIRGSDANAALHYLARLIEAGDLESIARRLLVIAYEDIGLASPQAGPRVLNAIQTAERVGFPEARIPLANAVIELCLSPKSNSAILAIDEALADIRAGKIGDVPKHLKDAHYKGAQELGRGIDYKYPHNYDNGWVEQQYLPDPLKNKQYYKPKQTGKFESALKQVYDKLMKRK
T2 sequence 2: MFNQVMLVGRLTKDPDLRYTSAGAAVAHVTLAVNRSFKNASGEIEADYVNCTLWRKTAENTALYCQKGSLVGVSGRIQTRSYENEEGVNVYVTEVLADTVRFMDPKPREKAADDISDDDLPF

In a further data set the target is T3, RarA;SsbA (Bacillus subtilis;Bacillus subtilis, UniProt O34528;P37455 1-421;1-172, |).
T3 sequence 1: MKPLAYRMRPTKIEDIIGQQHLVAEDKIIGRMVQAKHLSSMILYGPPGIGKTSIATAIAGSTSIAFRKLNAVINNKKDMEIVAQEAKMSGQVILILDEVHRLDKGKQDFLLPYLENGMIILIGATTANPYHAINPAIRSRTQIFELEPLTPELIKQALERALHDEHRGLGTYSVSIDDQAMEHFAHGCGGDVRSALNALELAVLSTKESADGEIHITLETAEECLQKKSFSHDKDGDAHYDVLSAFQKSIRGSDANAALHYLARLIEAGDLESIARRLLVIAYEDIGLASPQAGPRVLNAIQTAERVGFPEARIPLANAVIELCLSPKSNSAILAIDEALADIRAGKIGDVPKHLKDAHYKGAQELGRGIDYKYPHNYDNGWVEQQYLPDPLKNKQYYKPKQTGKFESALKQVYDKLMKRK
T3 sequence 2: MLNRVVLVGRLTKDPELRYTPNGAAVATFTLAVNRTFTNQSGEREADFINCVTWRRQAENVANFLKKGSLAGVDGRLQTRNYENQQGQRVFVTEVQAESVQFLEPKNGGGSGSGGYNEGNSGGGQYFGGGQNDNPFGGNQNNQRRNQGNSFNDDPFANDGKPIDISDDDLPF

The target of another data set is T4, RarA K51A;SsbA (Bacillus subtilis;Bacillus subtilis, UniProt O34528;P37455 1-421;1-172, K51A|).
T4 sequence 1: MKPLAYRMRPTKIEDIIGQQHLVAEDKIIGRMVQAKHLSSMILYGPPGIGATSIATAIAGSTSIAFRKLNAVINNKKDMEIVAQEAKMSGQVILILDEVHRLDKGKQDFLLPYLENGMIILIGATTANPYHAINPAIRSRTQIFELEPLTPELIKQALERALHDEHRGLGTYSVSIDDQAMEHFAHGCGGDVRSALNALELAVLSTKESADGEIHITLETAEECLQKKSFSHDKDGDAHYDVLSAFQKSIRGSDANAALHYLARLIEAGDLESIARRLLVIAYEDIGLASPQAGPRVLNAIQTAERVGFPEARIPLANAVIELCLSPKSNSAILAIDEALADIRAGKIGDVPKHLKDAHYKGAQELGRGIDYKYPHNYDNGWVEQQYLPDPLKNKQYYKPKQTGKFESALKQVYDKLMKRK
T4 sequence 2: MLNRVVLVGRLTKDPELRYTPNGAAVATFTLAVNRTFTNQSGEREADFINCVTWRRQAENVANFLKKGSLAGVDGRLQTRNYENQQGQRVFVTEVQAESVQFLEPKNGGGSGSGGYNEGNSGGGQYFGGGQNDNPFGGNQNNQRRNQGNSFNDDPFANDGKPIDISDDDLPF

Another data set concerns the target T5, RarA (Bacillus subtilis, UniProt O34528 1-421).
T5 sequence: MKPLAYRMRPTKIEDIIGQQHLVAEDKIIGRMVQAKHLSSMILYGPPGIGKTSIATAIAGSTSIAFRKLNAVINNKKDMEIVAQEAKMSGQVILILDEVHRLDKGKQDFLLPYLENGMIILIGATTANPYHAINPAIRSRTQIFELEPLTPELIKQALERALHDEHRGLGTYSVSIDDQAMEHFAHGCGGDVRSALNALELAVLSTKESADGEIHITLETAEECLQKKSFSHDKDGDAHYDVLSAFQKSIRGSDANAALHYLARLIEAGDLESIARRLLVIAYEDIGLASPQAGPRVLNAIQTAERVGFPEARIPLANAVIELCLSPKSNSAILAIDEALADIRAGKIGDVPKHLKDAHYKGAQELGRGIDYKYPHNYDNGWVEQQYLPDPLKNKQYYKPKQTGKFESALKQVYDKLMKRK

The next data set has as its target T6, RarA;PriA (Bacillus subtilis;Bacillus subtilis, UniProt O34528;P94461 1-421;1-805, |).
T6 sequence 1: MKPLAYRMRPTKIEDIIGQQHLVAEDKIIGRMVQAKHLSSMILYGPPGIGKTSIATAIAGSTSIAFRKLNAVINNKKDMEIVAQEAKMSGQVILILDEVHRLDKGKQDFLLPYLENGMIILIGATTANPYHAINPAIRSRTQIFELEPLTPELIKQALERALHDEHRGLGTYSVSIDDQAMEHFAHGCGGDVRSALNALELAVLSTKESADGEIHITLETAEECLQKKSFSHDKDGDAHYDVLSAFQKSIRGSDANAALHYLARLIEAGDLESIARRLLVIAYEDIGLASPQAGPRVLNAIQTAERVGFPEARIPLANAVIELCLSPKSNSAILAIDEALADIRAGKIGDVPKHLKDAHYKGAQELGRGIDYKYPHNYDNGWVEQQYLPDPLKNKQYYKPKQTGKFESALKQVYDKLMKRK
T6 sequence 2: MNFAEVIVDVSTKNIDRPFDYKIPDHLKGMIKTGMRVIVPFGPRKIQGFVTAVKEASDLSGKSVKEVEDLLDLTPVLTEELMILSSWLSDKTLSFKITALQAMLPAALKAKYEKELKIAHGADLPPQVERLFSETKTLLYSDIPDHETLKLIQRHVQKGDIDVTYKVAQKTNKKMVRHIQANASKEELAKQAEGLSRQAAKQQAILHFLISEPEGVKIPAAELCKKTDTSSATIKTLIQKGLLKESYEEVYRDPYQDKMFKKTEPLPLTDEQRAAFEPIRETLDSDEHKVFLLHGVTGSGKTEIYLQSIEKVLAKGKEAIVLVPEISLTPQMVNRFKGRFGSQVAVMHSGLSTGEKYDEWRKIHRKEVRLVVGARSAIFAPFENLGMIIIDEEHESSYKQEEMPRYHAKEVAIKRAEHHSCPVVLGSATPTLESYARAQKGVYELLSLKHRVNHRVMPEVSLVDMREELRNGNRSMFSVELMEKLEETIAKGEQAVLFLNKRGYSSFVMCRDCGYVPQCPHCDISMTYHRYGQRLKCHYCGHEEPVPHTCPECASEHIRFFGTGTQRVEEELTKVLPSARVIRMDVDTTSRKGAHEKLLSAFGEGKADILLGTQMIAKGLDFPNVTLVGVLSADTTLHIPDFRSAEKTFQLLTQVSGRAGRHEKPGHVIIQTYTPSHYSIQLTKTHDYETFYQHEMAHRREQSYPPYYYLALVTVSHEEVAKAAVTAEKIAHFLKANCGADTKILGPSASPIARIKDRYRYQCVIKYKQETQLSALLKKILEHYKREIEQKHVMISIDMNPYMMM

In data set [2] the target is T7, SsbA (Bacillus subtilis, UniProt P37455 1-172).
T7 sequence: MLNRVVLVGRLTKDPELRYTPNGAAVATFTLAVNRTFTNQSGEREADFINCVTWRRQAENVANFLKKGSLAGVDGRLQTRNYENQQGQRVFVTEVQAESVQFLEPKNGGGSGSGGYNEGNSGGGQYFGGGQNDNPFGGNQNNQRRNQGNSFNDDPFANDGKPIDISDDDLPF

The target of the next data set is T8, PriA (Bacillus subtilis, UniProt P94461 1-805).
T8 sequence: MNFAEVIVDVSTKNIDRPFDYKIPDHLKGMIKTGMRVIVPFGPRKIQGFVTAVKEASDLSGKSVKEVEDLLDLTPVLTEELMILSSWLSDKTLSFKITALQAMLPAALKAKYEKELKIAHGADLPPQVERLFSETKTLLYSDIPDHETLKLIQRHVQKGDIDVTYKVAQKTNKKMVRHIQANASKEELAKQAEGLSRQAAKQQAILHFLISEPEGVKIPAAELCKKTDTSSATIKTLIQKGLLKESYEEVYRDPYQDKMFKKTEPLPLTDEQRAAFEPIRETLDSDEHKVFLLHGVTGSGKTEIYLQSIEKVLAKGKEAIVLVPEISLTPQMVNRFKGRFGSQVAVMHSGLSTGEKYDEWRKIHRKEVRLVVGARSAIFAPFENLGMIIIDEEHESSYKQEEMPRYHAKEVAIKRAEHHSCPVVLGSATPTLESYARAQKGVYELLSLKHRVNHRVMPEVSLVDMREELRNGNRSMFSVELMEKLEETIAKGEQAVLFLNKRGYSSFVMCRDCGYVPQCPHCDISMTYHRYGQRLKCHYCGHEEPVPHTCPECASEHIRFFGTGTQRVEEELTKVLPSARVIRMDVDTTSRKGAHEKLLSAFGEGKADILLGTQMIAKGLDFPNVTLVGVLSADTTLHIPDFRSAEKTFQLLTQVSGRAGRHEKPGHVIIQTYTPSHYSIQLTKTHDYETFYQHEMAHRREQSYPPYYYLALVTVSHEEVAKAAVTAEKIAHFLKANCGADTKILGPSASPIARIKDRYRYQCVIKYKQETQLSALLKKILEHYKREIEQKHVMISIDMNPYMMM

For data set [3], the target named is T7, SsbA. The source holds these as a separate data set.

Read-outs that look alike come from different tables or passages of the source.

B1: 91-nt ssDNA (F1) (ssDNA)
DNA: TATAAAAAAAGCCAAGCTTGCATGCCTGCAGGTCGACTCTAGAGGATCCCCGGGTACCGAGCTCGAATTCACTGGCCGTCGTTTTACAACG
On to B1, for which the Kd was roughly 6 nM with SsbB and roughly 12 nM with RarA. Moreover, the binding result (in data set [1]; in the data set with RarA;SsbA; with RarA K51A;SsbA) was “binds” each time.

B2: replicated fork (F1/F2/F3) (dsDNA)
DNA 1: TATAAAAAAAGCCAAGCTTGCATGCCTGCAGGTCGACTCTAGAGGATCCCCGGGTACCGAGCTCGAATTCACTGGCCGTCGTTTTACAACG
DNA 2: AATTCGTTGTAAAACGACGGCCAGTGAATTCGAGCTCGGTACCCGCCAGCCACAGTCAGACACACACACACTACACACAAAAAAAAAAA
DNA 3: TTTTTTTTTTTGTGTGTAGTGTGTGTGTGTCTGACTGTGGCTGG
As for B2, the binding result with RarA;PriA, in the data set with RarA;SsbA and with SsbA [2] was “binds” each time. Moreover, the figures for the dissociation constant (Kd) in the data set with RarA and with PriA were roughly 19 nM and roughly 3 nM, respectively.

B3: fork DNA (F1/F2) (dsDNA)
DNA 1: TATAAAAAAAGCCAAGCTTGCATGCCTGCAGGTCGACTCTAGAGGATCCCCGGGTACCGAGCTCGAATTCACTGGCCGTCGTTTTACAACG
DNA 2: AATTCGTTGTAAAACGACGGCCAGTGAATTCGAGCTCGGTACCCGCCAGCCACAGTCAGACACACACACACTACACACAAAAAAAAAAA
Turning to B3, the binding result with SsbA [3] and with RarA;SsbA was “binds” each time. Also, the equilibrium dissociation constant (Kd) with RarA was roughly 12 nM.
